Patent US10398755B2, “Clusterin pharmaceuticals and treatment methods using the same” (UNIVERSITY OF SOUTHERN CALIFORNIA, priority 2009, dated 2019)

System: MMP-9
Test: MMP inhibition assay (FRET peptide substrate), APMA-activated pro-MMP-9
Format: biochemical
Protocol: Pro-MMP-9 (A) or pro-MMP-2 (C) was incubated with PBS, CLU (50 μg/ml, or 0.63 μM), SB3-CT (2 μM), or BSA (50 μg/ml), and MMP FRET substrate peptides in the presence and absence of […] APMA at RT for 3 h. RFU, relative fluorescence unit, was obtained by considering the read out in PBS as 100%. Each reaction was performed in triplicate. Standard errors were depicted as a bar in each graph. Differences between values of PBS and CLU or SB-3CT reactions were statistically significant by Student t-test: *P=0.0004, **P=0.0001, +P=0.0003, and ++P=0.01. Gelatin zymography was performed with the samples pooled from each reaction set. Pro-MMPs, processed MMPs (MMP-9 or MMP-2), and C-terminal truncated, processed MMP-9 (MMP-9-ΔC) were indicated by arrows. (B) Dose-dependent inhibition of MMP-9 by CLU or SB-3CT was performed in the same condition. MMPs were mixed with CLD in TSCB buffer, 50 mM Tris-HCI, pH, 7.5, 150 mM NaCl, 5 mM CaCl2, 0.002% Brij35 (or otherwise indicated concentration) 30 min prior to substrate addition, and incubated for 3 h at RT in the presence or absence of 0.02 mM p-aminophenylmercuric acetate (APMA). MMP activity was measured using a 5-FAM/QXL520 fluorescence resonance energy transfer (FRET) peptide as a substrate (EXlEm=490 nm/520 nm) (AnaSpec, Fremont, Calif.), according to the manufacturer's protocol. Relative fluorescence unit (RFU) was obtained by subtracting the values of APMA- or enzyme-omitted reactions from those of test samples, and then considering the fluorescence unit of a PBS (vehicle) sample as 100%. Enzyme reactions were performed in black 96-well plate, containing combinations of 10 ng, 5 ng, 5 ng, 10 ng, 2.5 μg, 2.5 μg of MMP-2, MMP-7, catalytic domain of MMP-9, MMP-9, CCLU, and/or BSA, respectively, in 50 μl reaction volume. As MMP substrates (0.4 μM), 520 MMP FRET substrate […] (SEQ ID NO: 9), was used for MMP-2 and MMP-9, and 520 MMP FRET substrate XIV, […] (SEQ ID NO: 10), used for MMP-7 reactions, both of which were purchased from AnaSpec (Fremont, Calif.). Recombinant proteins such as mouse CLU with C-terminal (His)6 (CLU-His), MMP-2, and MMP-7 were purchased from R&D Systems (Minneapolis, Minn.), MMP-9 was purchase from Ana-Spec, Inc. (San Jose, Calif.). The recombinant catalytic domain of human MMP-9 (residue 112-445) was purchased from ProtEra (Sesto Fiorentino, Italy). A gelatinase-specific synthetic inhibitor, SB-3CT, was obtained from Biomol International (Plymouth Meeting, Pa.). Fluorescence was monitored using a Victor^3TM V multilabel counter (PerkinElmer). For the gelatin digestion, a 50 μl mixture of gelatin (20 μg) and CLU (2 μg) was incubated with or without active MMP-9 (70 ng) for 2 hours at 37° C. The reaction products were run on a 12% denaturing SDS/PAGE gel for Coomasie staining. […] To determine whether MMP-9/CLU interaction affects the cleavage process of the propeptide of MMP-9 and/or interferes with enzymatic activity of the processed active enzyme, we performed an in vitro MMP-9 inhibition assay, by adopting FRET assay using a fluorescence-quenched peptide substrate (FIG. 3A). […] We incubated pro-MMP-9 with PBS, CLU, SB-3CT, or BSA, and a fluorescence peptide substrate in the presence or absence of APMA. […] We monitored the change in fluorescence value during the incubation of the reactions up to 3 h, which reflects the enzymatic activity of APMA-activated MMPs. […] At 3 h post incubation, the activity difference was read and reaction products were resolved by gelatin zymography. […]

B1: CLU: secreted disulfide-linked heterodimeric glycoprotein (70-80 KD); assays used recombinant mouse CLU with C-terminal (His)6 (protein, UniProt Q06890 22-448, looked up)
Clusterin: EQEVSDNELQELSTQGSRYINKEIQNAVQGVKHIKTLIEKTNAERKSLLNSLEEAKKKKEDALEDTRDSEMKLKAFPEVCNETMMALWEECKPCLKHTCMKFYARVCRSGSGLVGQQLEEFLNQSSPFYFWMNGDRIDSLLESDRQQSQVLDAMQDSFARASGIIDTLFQDRFFARELHDPHYFSPIGFPHKRPHFLYPKSRLVRSLMSPSHYGPPSFHNMFQPFFEMIHQAQQAMDVQLHSPAFQFPDVDFLREGEDDRTVCKEIRRNSTGCLKMKGQCEKCQEILSVDCSTNNPAQANLRQELNDSLQVAERLTEQYKELLQSFQSKMLNTSSLLEQLNDQFNWVSQLANLTQGEDKYYLRVSTVTTHSSDSEVPSRVTEVVVKLFDSDPITVVLPEEVSKDNPKFMDTVAEKALQEYRRKSRAE
modifications: C-terminal His6 tag
With B1 the “average inhibition of MMP-9, three independent experiments in triplicate” value (50 μg/ml of CLU, p=0.002) was 35%, the “effect on APMA-induced processing of pro-MMP-9 (zymography)” value (APMA-treated reactions) was “did not affect the enzyme processing by APMA” and the “inhibition of the activity of MMP-9” value (CLU 50 μg/ml (0.63 μM), APMA, RT 3 h, 0.002% Brij 35, compared with PBS and BSA) was 28%. For the same molecule, the “dose-dependent inhibition of MMP-9, comparison with SB-3CT” value (FIG. 3B) was “stronger MMP-9 inhibitor than a synthetic gelatinase inhibitor, SB-3CT” and the “MMP-9 inhibition at high detergent concentration” value (pro-MMP-9 or APMA-activated MMP-9, 0.04% Brij 35 or NP-40) was “little MMP-9 inhibition”.
